This is an account of results in publication PMC11239673, “Structural basis for the bi-specificity of USP25 and USP28 inhibitors” (EMBO Reports, 2024).

A word on the stoichiometry N: it is a count of units in the complex or per binding partner.

What all share (conditions): remark: other sources report otherwise
In assay [1] the target is T1, full-length USP25 (USP25 1-1055) (human), Q9UHP3.
T1 chain: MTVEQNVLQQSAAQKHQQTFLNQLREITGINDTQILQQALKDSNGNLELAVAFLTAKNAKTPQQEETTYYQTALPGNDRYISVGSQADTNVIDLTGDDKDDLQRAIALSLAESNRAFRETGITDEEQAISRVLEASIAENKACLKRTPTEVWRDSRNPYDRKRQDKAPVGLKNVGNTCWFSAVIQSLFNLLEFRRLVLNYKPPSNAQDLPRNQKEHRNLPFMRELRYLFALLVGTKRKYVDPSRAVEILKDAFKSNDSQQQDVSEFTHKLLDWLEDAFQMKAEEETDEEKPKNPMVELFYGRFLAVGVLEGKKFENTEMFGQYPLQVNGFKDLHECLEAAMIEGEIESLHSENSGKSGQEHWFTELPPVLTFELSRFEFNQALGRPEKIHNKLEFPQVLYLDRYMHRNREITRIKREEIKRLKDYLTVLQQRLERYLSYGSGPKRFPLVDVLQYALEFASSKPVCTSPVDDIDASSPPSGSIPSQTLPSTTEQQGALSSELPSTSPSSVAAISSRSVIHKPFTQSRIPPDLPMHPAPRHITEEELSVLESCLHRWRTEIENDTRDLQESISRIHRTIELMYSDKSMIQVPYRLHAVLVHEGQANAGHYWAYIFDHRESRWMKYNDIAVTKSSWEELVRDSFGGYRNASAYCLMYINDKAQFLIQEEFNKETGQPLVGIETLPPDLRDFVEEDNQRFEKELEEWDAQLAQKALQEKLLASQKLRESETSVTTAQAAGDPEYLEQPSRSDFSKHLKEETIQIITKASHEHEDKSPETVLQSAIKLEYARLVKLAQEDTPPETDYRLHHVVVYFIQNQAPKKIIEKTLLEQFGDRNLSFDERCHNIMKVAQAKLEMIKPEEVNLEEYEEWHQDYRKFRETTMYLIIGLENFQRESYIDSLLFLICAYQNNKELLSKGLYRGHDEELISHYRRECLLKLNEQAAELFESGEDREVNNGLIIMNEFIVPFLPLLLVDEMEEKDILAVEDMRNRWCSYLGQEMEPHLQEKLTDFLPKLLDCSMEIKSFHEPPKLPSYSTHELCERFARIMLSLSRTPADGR
Briefly: SEC-MALS; tetramer to dimers; 20 µM USP25fl with 60 µM AZ1, 45 min incubation at 4 °C; Superose 6 10/300 GL; 20 mM HEPES pH 8.0, 150 mM NaCl, 1 mM TCEP. (Size exclusion chromatography separates by hydrodynamic size, large species first.)

The target in assay [2] is T1, full-length USP25 (USP25 1-1055) …. The assay can be described thus: SEC-MALS; tetramer to dimers; 20 µM USP25fl with 60 µM VSM, 45 min incubation at 4 °C; Superose 6 10/300 GL; 20 mM HEPES pH 8.0, 150 mM NaCl, 1 mM TCEP.
For assay [3] the target is unchanged. Briefly: SEC-MALS; tetramer to dimers; 10 µM USP25fl with DMSO control, 45 min incubation at 4 °C; Superose 6 10/300 GL; 20 mM HEPES pH 8.0, 150 mM NaCl, 1 mM TCEP.
The target is the same in assay [4]. The assay can be described thus: SEC-MALS; tetramer to dimers; 20 µM USP25fl with DMSO control, 45 min incubation at 4 °C; Superose 6 10/300 GL; 20 mM HEPES pH 8.0, 150 mM NaCl, 1 mM TCEP.
For assay [5] the target is unchanged. The assay can be described thus: SEC-MALS; tetramer to dimers; 10 µM USP25fl with 5, 10 or 20 µM AZ1, 45 min incubation at 4 °C; Superose 6 10/300 GL; 20 mM HEPES pH 8.0, 150 mM NaCl, 1 mM TCEP.
For assay [6] the target is unchanged. The assay can be described thus: SEC-MALS; tetramer to dimers; 20 µM USP25fl with 60 µM racemic FT206, 45 min incubation at 4 °C; Superose 6 10/300 GL; 20 mM HEPES pH 8.0, 150 mM NaCl, 1 mM TCEP.
Assay [7] has the same target. Briefly: SEC-MALS; tetramer to dimers; 10 µM USP25fl with 5, 10 or 20 µM racemic FT206, 45 min incubation at 4 °C; Superose 6 10/300 GL; 20 mM HEPES pH 8.0, 150 mM NaCl, 1 mM TCEP.

Where “and” joins values, the source holds several entries; their conditions need not be identical. Equal entries are not always repeated.

B1: full-length USP25 (USP25 1-1055), Q9UHP3 1-1055 (enzyme)
chain: T1 chain
The molecule B1 displayed a percent dimers (with 60 µM AZ1) in assay [1] of 80.8%. For the same molecule, the percent dimers (with 60 µM VSM) in assay [2] amounted to 75%. In assay [3], the percent dimers was found to be 25%, the percent dimers (DMSO control of the AZ1 series) worked out at 23%, the percent dimers (DMSO control of the FT206 series) turned out to be 28% and the percent tetramers was found to be 75%. In addition, in assay [3], the stoichiometry N was 4 and 2. Besides, the percent dimers (DMSO control) in assay [4] came to 26.2%. In assay [5], this molecule yielded a percent dimers (with 20 µM AZ1) of 46%. Besides, in assay [6], the percent dimers (with 60 µM FT206) was 77.7%. Besides, in assay [7], the percent dimers (with 10 µM FT206) was 50% and the percent dimers (with 20 µM FT206) came out at 76%.
